Molecular target: GST–Rab7 (wild type, loaded with GTP or GTPγS) (UniProt P51149 1-207)
Assay: pull-down

Chain of GST–Rab7 (wild type, loaded with GTP or GTPγS) (P51149 whole entry): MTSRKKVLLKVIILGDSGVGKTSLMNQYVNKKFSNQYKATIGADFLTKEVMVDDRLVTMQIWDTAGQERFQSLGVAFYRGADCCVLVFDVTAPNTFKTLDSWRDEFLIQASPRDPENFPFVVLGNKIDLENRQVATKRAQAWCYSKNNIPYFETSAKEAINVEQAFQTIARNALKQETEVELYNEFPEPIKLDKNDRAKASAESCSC

- fold increase of binding in the presence of m9: ~4 fold
B1: in vitro–translated 35S-labeled ORP1L (full length) (natural protein, human, UniProt Q9BXW6-1 1-950, looked up)
chain: MNTEAEQQLLHHARNGNAEEVRQLLETMARNEVIADINCKGRSKSNLGWTPLHLACYFGHRQVVQDLLKAGAEVNVLNDMGDTPLHRAAFTGRKELVMLLLEYNADTTIVNGSGQTAKEVTHAEEIRSMLEAVERTQQRKLEELLLAAAREGKTTELTALLNRPNPPDVNCSDQLGNTPLHCAAYRAHKQCALKLLRSGADPNLKNKNDQKPLDLAQGAEMKHILVGNKVIYKALKRYEGPLWKSSRFFGWRLFWVVLEHGVLSWYRKQPDAVHNIYRQGCKHLTQAVCTVKSTDSCLFFIKCFDDTIHGFRVPKNSLQQSREDWLEAIEEHSAYSTHYCSQDQLTDEEEEDTVSAADLKKSLEKAQSCQQRLDREISNFLKMIKECDMAKEMLPSFLQKVEVVSEASRETCVALTDCLNLFTKQEGVRNFKLEQEQEKNKILSEALETLATEHHELEQSLVKGSPPASILSEDEFYDALSDSESERSLSRLEAVTARSFEEEGEHLGSRKHRMSEEKDCGGGDALSNGIKKHRTSLPSPMFSRNDFSIWSILRKCIGMELSKITMPVIFNEPLSFLQRLTEYMEHTYLIHKASSLSDPVERMQCVAAFAVSAVASQWERTGKPFNPLLGETYELVRDDLGFRLISEQVSHHPPISAFHAEGLNNDFIFHGSIYPKLKFWGKSVEAEPKGTITLELLEHNEAYTWTNPTCCVHNIIVGKLWIEQYGNVEIINHKTGDKCVLNFKPCGLFGKELHKVEGYIQDKSKKKLCALYGKWTECLYSVDPATFDAYKKNDKKNTEEKKNSKQMSTSEELDEMPVPDSESVFIIPGSVLLWRIAPRPPNSAQMYNFTSFAMVLNEVDKDMESVIPKTDCRLRPDIRAMENGEIDQASEEKKRLEEKQRAARKNRSKSEEDWKTRWFHQGPNPYNGAQDWIYSGSYWDRNYFNLPDIY
modifications: 35S-labeled

Reference: paper PMC2063981 (The Journal of Cell Biology, 2007)
